Measured values reported in patent publication US20240158448A1, “MULTIVALENT NANO-'SELF' PEPTIDES AND USES THEREOF” (THE TRUSTEES OF THE UNIVERSITY OF PENNSYLVANIA, priority 2021, published 2024).
Entries after “also recorded” stand apart in the source; their conditions may differ. Non-standard residues stand in square brackets, D forms with d. Primed or numbered codes have the meaning given here. No end group written: not given here. PEG5′ = linker of 5 PEG units between residues

Key:
THP-1 macrophages = assay: Phosphotyrosine (pTyr) staining of THP-1 macrophages; type: cell-based, human; conditions: 20 nM peptide
Protocol: Phosphotyrosine (pTyr) staining. THP-1 monocytes were PMA differentiated for 48 hours. Macrophages were washed with RPMI three times then incubated with 50 μM and 20 nM of either nS-F or nS-FF for 1 hour at 37° C., 5% CO2 and 95% humidity. The same conditions were replicated with the addition of 5 μg/mL anti-CD47. Excess peptide was washed with PBS then macrophages were fixed. […] After washing with PBS, the macrophages were incubated with 1:100 mouse anti-pTyr (Santa Cruz Biotechnology) for 1 hour at room temperature with shaking. Macrophages were washed with PBS then stained with AlexaFluor 488 donkey anti-mouse (1:1000; Invitrogen) and 1 μg/mL Hoechst 33342 for 1 hour with shaking then washed again. Fluorescence imaging and quantification was performed as described elsewhere herein.

SIRPα = molecular target: T1, SIRPα (Homo sapiens, UniProt P78324); assay: CD47-Fc Inhibition Assay on THP-1 macrophages; type: binding; conditions: 1 μM or 50 μM peptide, 2 μg/mL CD47-Fc, anti-Fc fluorescence
T1 construct: THP-1 monocytes were PMA differentiated in RPMI for 48 h; endogenous in cells; host or cells: PMA-differentiated THP-1 macrophages
Protocol: CD47-Fc Inhibition Assay. THP-1 monocytes were PMA differentiated in RPMI for 48 h. The macrophages were washed with RPMI media and then incubated with 1 μM or 50 μM of nano- Self peptides for 1 h at 37° C., 5% CO2, and 95% humidity. After washing, the macrophages were incubated with Human Trustain FcX Fc receptor blocking solution (Biolegend) for 10 min at RT and then incubated with 2 μg/mL CD47-Fc fusion protein (ACRO Biosystems) for 1 h at 37° C., 5% CO2, and 95% humidity. As a negative control, B6H12 was pre-mixed with CD47-Fc at 4° C. on a rotator for 1 h. The macrophages were then washed and incubated with 0.5 μg/mL goat anti-human IgG Fc DyLight 488 (Thermo Fischer) for 1 h at 37° C., 5% CO2, and 95% humidity. Finally, the macrophages were washed, fixed, Hoechst 33342 stained, and imaged as described above.
To determine whether the nS peptides bind to SIRPα, nS-FF and nS-F4 were used as soluble competitive inhibitors of saturable CD47-Fc fusion protein binding to macrophages (FIG. 20). Addition of multivalent nS peptides was followed by Fc-receptor blockade to minimize Fc-driven binding of construct. Afterwards, CD47-Fc was added and then finally anti-Fc fluorescence imaging was performed (FIG. 20, left).

[1] = Pre-clinical safety: intravenous nS-FF injections in mice; type: in vivo, mouse
Protocol: FIGS. 23A-23D illustrate that pre-clinical assessments indicate nS-FF is safe in vivo Phase 1 pre-clinical trial: Intravenous injections of nS-FF were done for four consecutive days followed by blood withdrawal 24 hours after last injection.
Phase 1 clinical trials for safety of anti-CD47 in patients have shown that infusion into the bloodstream decreases RBC numbers (i.e. hematocrit) and increases reticulocytes (i.e. new RBCs), and related blood safety concerns apply to a bivalent CD47-binding protein made with SIRPα domains fused to a macrophage-binding domain (Fc domain). […] This corresponds to about 8 μM in the blood, assuming rapid mixing and no dilution within the ˜1.5 mL blood volume of the mouse. Withdrawal of ˜140 μL from this blood volume was necessary to obtain a complete hematology profile, and such a volume is expected to cause slight decreases in hematocrit and platelets as shown (FIGS. 23A-23B). Consistent with this loss, more RBCs should be produced in each mouse to compensate for the RBC loss, and the ˜30% increase in reticulocytes after the first two blood draws over 11 days (FIG. 23C) is similar to the prior amount of blood removed (˜300 μl/1500 μl). The mice (˜14 weeks) also continued to gain weight at the same rates (˜5% over 11 days) regardless of peptide injections. These changes are thus expected but, importantly, unaffected by the nSFF peptide, which establishes some safety.

[2] = system: human macrophages (opsonized K562 cancer cells); assay: Phagocytosis of opsonized K562 erythroleukemia cells by human macrophages; type: cell-based
Protocol: In vitro phagocytosis assay. Fresh human RBCs were washed twice with 50 mM EDTA (Thermo Fischer) in PBS (Gibco) then twice with 5% FBS in PBS. RBCs were opsonized with 20 μg/mL rabbit anti-human RBC antibody (Rockland) in 5% FBS for 1 hour at RT with shaking. For CD47 blocked RBCs, 5 μg/mL of mouse anti-human CD47 (B6H12; BD Biosciences) were added. Thereafter, RBCs were washed with PBS three times and stained with PKH26 dye (1:800 dilution in PBS; Sigma) for 1 hour at RT with shaking in the dark. RBCs were washed and resuspended in PBS.
THP-1 monocytes were PMA differentiated in RPMI for 48 hours. Macrophages were then washed with RPMI media three times. For SIRPα blocked THP-1 macrophages, 20 nM, 1 μM or 50 μM of the nano—Self peptides were incubated with the THP-1 macrophages for 1 hour at 37 ° C., 5% CO2 and 95% humidity. Those THP-Is were then washed with RPMI three times.
CO2 and 95% humidity. Macrophages were then washed with RPMI three times. Adherent and uninternalized RBCs were lysed with water for 30 seconds followed by immediate replacement with RPMI media. In order to distinguish remaining adherent RBCs from internalized RBCs, opsonized RBCs were stained with AlexaFluor 647 donkey anti-rabbit (binds to rabbit polyclonal opsonin on RBC; Invitrogen) IgG (1:1000) while unopsonized, CD47 blocked RBCs were stained with AlexaFluor 647 donkey anti-mouse (binds to mouse monoclonal anti-CD47 on RBCs; Invitrogen) IgG (1:1000) for 30 minutes. After washing, macrophages were fixed with 4% formaldehyde for 15 minutes at RT, washed with PBS, stained with 1 μg/mL Hoechst 33342, and then washed with PBS again. Fluorescence imaging was performed as described elsewhere herein and quantification was done using ImageJ. At least 200 cells were analyzed and experiments were repeated at least three times.
The anti-RBC successfully opsonized and triggered phagocytosis of K562 cells by macrophages (FIGS. 2A, 2F and 2E). […] Interaction of the nS peptides with K562 cells is likely minimal due to the relative lack of SIRPα expression. […] For both opsonized RBCs and opsonized K562s (FIGS. 2D, 2F), the hyperphagocytosis that is achieved with soluble F- and V-nS peptides matches the recently measured increases for disruption of both (i) the trans interactions between CD47 on a target and macrophage SIRPα and also, importantly, (ii) the cis interactions between CD47 and SIRPα on the same macrophage (FIG. 2G-left). Expression profiling of macrophages confirms these cells generally express CD47 at roughly similar levels to other cell types (FIG. 15). […] A preliminary conclusion is that nS-FF and the other substituted peptides, which were designed to bind SIRPα, inhibit both the cis and trans interactions between SIRPα and CD47 ([…]).

(VTELFREG-PEG5)2-K (VTELFREG[PEG5′]K[PEG5′]GERFLETV; not fully specified; also: bivalent lysine core) [nS-FF, bivalent nS-F linked through PEG5 linkers to a C-terminal Lys]
effect on pTyr signal (THP-1 macrophages): suppressed pTyr at nanomolar concentrations; also recorded: suppressed passivating pTyr intensity; also recorded: suppressed pTyr signal; also recorded: efficiently suppresses phosphorylation
level of inhibition of CD47-Fc binding (SIRPα): as inhibitory as anti-CD47
increase in reticulocytes ([1]; after the first two blood draws over 11 days, unaffected by peptide): ~30%
safety: mouse hematology and body weight ([1]; four daily tail-vein injections of 1 mg/kg, 1 mg/kg): safe, with no anemia or weight loss; also recorded: no differences versus PBS vehicle control
body weight gain ([1]; over 11 days, same rates regardless of peptide injections): ~5%
increase of phagocytosis relative to opsonized and CD47 blocked K562 cells ([2]; saturating peptide): nearly doubled; also recorded: about two-fold
macrophages engulfing opsonized K562 cells at saturation ([2]; saturation): ~40%
